Square brackets hold non-standard residues; d marks the D form. Carminic acid = quencher bound covalently; Ala(Pyr) = not defined here; Dap = NC[C@H](N)C(=O)O
Biological target: T1, 14-3-3τ (UniProt P27348 1-245)
T1 sequence (looked up): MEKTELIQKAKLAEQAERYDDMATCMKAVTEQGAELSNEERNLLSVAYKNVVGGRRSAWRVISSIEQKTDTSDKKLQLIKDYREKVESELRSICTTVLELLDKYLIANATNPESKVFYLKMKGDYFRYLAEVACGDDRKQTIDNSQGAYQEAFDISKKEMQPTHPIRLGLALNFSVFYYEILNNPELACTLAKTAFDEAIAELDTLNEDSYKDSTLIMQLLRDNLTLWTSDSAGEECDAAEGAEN
Test: cell-based or functional assay

## Ac-G[Ala(Pyr)]TGRR[Dap](Carminic acid)SLPA-NH2 (reading uncertain; also: Ser phosphorylated by PKA in the assay) [P14, AcGAla(Pyr)TGRRDap(Carminic acid)SLPA-amide, serine-phosphorylated by PKA in the assay]
  fold increase in fluorescence upon phosphorylation by PKA: 2.2 fold

From patent publication US20080318246A1 (ALBERT EINSTEIN COLLEGE OF MEDICINE OF YESHIVA UNIVERSITY, published 2008)
